Reference: patent US20090143241

Experiments:
[1] = test system: GFP-tag (EGFP with the tmRNA peptide tag AANDENYALAA at the C terminus) [GFP: P42212]
[2] = test system: IXP1, cyclic SGWYGRRH peptide

Substance	KM of GFP-tag degradation (ClpXP with SspB) [1]	KM of GFP-tag degradation (ClpXP with SspB, no cyclic peptide) [1]	kcat of GFP-tag degradation (ClpXP with SspB) [1]	kcat of GFP-tag degradation (ClpXP with SspB, no cyclic peptide) [1]	rate of GFP-tag proteolysis [2]	rate of ClpX ATP hydrolysis [2]	rate of ClpX ATP hydrolysis with GFP-tag included [2]
ClpXP protease (E. coli ClpX6 with ClpP14)	KM=0.74±0.04	KM=0.74±0.04 µM	kcat=1.79±0.08 min-1	kcat=1.79±0.08 min^-1	Inclusion of purified IXP1 reduced the rate of GFP-tag proteolysis		
ClpX (E. coli), N-terminally His6-tagged						The rate of ClpX ATP hydrolysis was not inhibited by IXP1 at concentrations up to 200 µM	IXP1 still had no effect on ClpX activity
